According to the supplement of paper PMC7125110:
± gives the standard error. For some of these results: Fewer inactive variants are shown than the library holds.

B1: glmS ribozyme (parent)
chain: AUAAAAGCGCCAGAACUACAGAAAUGUAGUUGACGAGGAGGAGGUUUAUCGAAUUUUCGGCGGAUGCCUCCAAA

Assays:
Settings in all cases: with glucosamine-6-phosphate
glucosamine-6-phosphate [1] = variants of: B1; test: kcat; higher = faster cleavage; RNA array
In short: (§1)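 Glucosamine-6-phosphate, from 40 μM to 10 mM in HEPES/KCl/Mg(OAc)2 buffer, was flowed over sequenced MiSeq chips carrying barcoded ribozyme variants transcribed in situ by E. coli RNA polymerase. A hybridised Cy3 probe tracked the variants at 37 °C as tiles were imaged over ~14 h. kobs, kcat and KM were obtained by fitting normalised per-tile medians to exponential decays and then applying weighted Michaelis–Menten fits across concentrations.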

glucosamine-6-phosphate [2] = variants of: B1; test: self-cleavage kobs at 40 uM GlcN6P; higher = faster cleavage; RNA array
In short: as §1

glucosamine-6-phosphate [3] = variants of: B1; test: self-cleavage kobs at 640 uM GlcN6P; higher = faster cleavage; RNA array
In short: as §1

glucosamine-6-phosphate [4] = variants of: B1; test: self-cleavage kobs at 2500 uM GlcN6P; higher = faster cleavage; RNA array
In short: as §1

glucosamine-6-phosphate [5] = variants of: B1; test: self-cleavage kobs at 10000 uM GlcN6P; higher = faster cleavage; RNA array
In short: as §1

glucosamine-6-phosphate [6] = variants of: B1; test: KM; higher = weaker cofactor use; RNA array
In short: as §1

glucosamine-6-phosphate [7] = variants of: B1; test: self-cleavage kobs at 160 uM GlcN6P; higher = faster cleavage; RNA array
In short: as §1

Variant | kcat (glucosamine-6-phosphate [1]) | self-cleavage kobs at 40 uM GlcN6P (glucosamine-6-phosphate [2]) | self-cleavage kobs at 640 uM GlcN6P (glucosamine-6-phosphate [3]) | self-cleavage kobs at 2500 uM GlcN6P (glucosamine-6-phosphate [4]) | self-cleavage kobs at 10000 uM GlcN6P (glucosamine-6-phosphate [5]) | KM (glucosamine-6-phosphate [6]) | self-cleavage kobs at 160 uM GlcN6P (glucosamine-6-phosphate [7])
A64G G66C | 0.00291 ± 0.001 s⁻¹ | 4.68e-05 ± 1.7e-05 s⁻¹ | 0.00057 ± 0.00011 s⁻¹ | 0.00103 ± 0.00022 s⁻¹ | 0.0027 ± 0.00051 s⁻¹ | – | –
A64G G66A | 0.0158 ± 0.0059 s⁻¹ | 0.000837 ± 9.3e-05 s⁻¹ | 0.00554 ± 0.0008 s⁻¹ | 0.0124 ± 0.0025 s⁻¹ | 0.0215 ± 0.0052 s⁻¹ | 936 ± 460 µM | 0.00197 ± 0.00028 s⁻¹
A6C G37C A39G G40U G41U | – | < 1e-05 s⁻¹ | < 1e-05 s⁻¹ | < 1e-05 s⁻¹ | – | – | < 1e-05 s⁻¹
A6C G43C G63A C71A | – | < 1e-05 s⁻¹ | – | – | < 1e-05 s⁻¹ | – | –
A6G A39G C68A C70G | – | < 1e-05 s⁻¹ | – | – | – | – | –
A6C G7C C11G U55G | – | < 1e-05 s⁻¹ | – | – | < 1e-05 s⁻¹ | – | –
G66U U69A | 0.000163 ± 3e-05 s⁻¹ | – | 8.9e-05 ± 1.5e-05 s⁻¹ | 0.000118 ± 2.1e-05 s⁻¹ | 0.000191 ± 3.2e-05 s⁻¹ | – | 7.46e-05 ± 3e-05 s⁻¹
A64U G66A | 0.000113 ± 1.2e-05 s⁻¹ | < 1e-05 s⁻¹ | – | 4.95e-05 ± 8.6e-06 s⁻¹ | 8.32e-05 ± 1e-05 s⁻¹ | 3460 ± 930 µM | –
A6G C10G G13U C16G U54G U57G | – | < 1e-05 s⁻¹ | – | – | < 1e-05 s⁻¹ | – | –
C68A C70G | < 1e-05 s⁻¹ | < 1e-05 s⁻¹ | – | – | < 1e-05 s⁻¹ | – | –
A12C A36U | – | – | – | – | – | 56.2 ± 26 µM | –
A64G C71U | 0.00692 ± 0.0014 s⁻¹ | 0.000158 ± 1.6e-05 s⁻¹ | 0.00177 ± 0.00015 s⁻¹ | 0.00386 ± 0.00036 s⁻¹ | 0.00552 ± 0.00084 s⁻¹ | 2040 ± 540 µM | 0.000417 ± 4.5e-05 s⁻¹
A6G A36C G41U | – | < 1e-05 s⁻¹ | < 1e-05 s⁻¹ | – | < 1e-05 s⁻¹ | – | –
A6G A52G A53G C67G | – | 6.36e-05 ± 3.1e-05 s⁻¹ | 0.00028 ± 0.00011 s⁻¹ | – | – | – | –
A6C U46A U49A | – | < 1e-05 s⁻¹ | < 1e-05 s⁻¹ | < 1e-05 s⁻¹ | – | – | < 1e-05 s⁻¹
A6C G13C A52G | – | < 1e-05 s⁻¹ | – | – | < 1e-05 s⁻¹ | – | –
A6G C11G A42U | – | < 1e-05 s⁻¹ | – | < 1e-05 s⁻¹ | < 1e-05 s⁻¹ | – | –
A6G C50G A53G C58U | – | 0.000224 ± 9.8e-05 s⁻¹ | – | – | – | – | –
A6G A12G A64U C70U | – | < 1e-05 s⁻¹ | – | – | < 1e-05 s⁻¹ | – | –
A64G C67U | 0.00193 ± 0.0003 s⁻¹ | 2.93e-05 ± 7.3e-06 s⁻¹ | 0.000628 ± 8.6e-05 s⁻¹ | 0.00125 ± 0.00017 s⁻¹ | 0.00154 ± 0.00015 s⁻¹ | 1860 ± 470 µM | 0.000155 ± 2.3e-05 s⁻¹
A6C G43C | – | < 1e-05 s⁻¹ | < 1e-05 s⁻¹ | – | < 1e-05 s⁻¹ | – | < 1e-05 s⁻¹
A6C G43U | – | < 1e-05 s⁻¹ | < 1e-05 s⁻¹ | < 1e-05 s⁻¹ | < 1e-05 s⁻¹ | – | < 1e-05 s⁻¹
A6C C58U | – | < 1e-05 s⁻¹ | – | – | < 1e-05 s⁻¹ | – | < 1e-05 s⁻¹

Variant | kcat (glucosamine-6-phosphate [1]) | self-cleavage kobs at 40 uM GlcN6P (glucosamine-6-phosphate [2]) | self-cleavage kobs at 640 uM GlcN6P (glucosamine-6-phosphate [3]) | self-cleavage kobs at 2500 uM GlcN6P (glucosamine-6-phosphate [4]) | self-cleavage kobs at 10000 uM GlcN6P (glucosamine-6-phosphate [5]) | KM (glucosamine-6-phosphate [6]) | self-cleavage kobs at 160 uM GlcN6P (glucosamine-6-phosphate [7])
A6C C58G | – | < 1e-05 s⁻¹ | < 1e-05 s⁻¹ | – | < 1e-05 s⁻¹ | – | –
A64G U69G C71A | 2.3e-05 ± 7.7e-06 s⁻¹ | – | – | – | – | – | –
A6C C11U A33C A36G U47G G59A | – | < 1e-05 s⁻¹ | < 1e-05 s⁻¹ | – | – | – | –
A6C U31A | – | < 1e-05 s⁻¹ | < 1e-05 s⁻¹ | – | 3.99e-05 ± 1.3e-05 s⁻¹ | – | –
A6G A12C C71A | – | < 1e-05 s⁻¹ | – | – | – | – | –
G62U C67U | < 1e-05 s⁻¹ | – | – | – | < 1e-05 s⁻¹ | – | –
A6C U56C | – | < 1e-05 s⁻¹ | – | – | – | – | < 1e-05 s⁻¹
C67A C68A | 3.56e-05 ± 6.8e-06 s⁻¹ | – | 5.08e-05 ± 1.2e-05 s⁻¹ | 2.46e-05 ± 1e-05 s⁻¹ | 3.61e-05 ± 9.6e-06 s⁻¹ | – | –
C67U C70U C71U | 1.14e-05 ± 1.2e-06 s⁻¹ | – | – | – | – | 339 ± 160 µM | –
A6C G60U | – | < 1e-05 s⁻¹ | < 1e-05 s⁻¹ | < 1e-05 s⁻¹ | < 1e-05 s⁻¹ | – | < 1e-05 s⁻¹
A6G A15U G59A | – | < 1e-05 s⁻¹ | – | < 1e-05 s⁻¹ | < 1e-05 s⁻¹ | – | –
A6C A33U C58G G60U C71A | – | < 1e-05 s⁻¹ | – | – | – | – | –
A6C C8U A14G | – | < 1e-05 s⁻¹ | – | – | < 1e-05 s⁻¹ | – | –
A6C G29C A36G | – | < 1e-05 s⁻¹ | – | < 1e-05 s⁻¹ | < 1e-05 s⁻¹ | – | < 1e-05 s⁻¹
A6G C10U G43C | – | < 1e-05 s⁻¹ | < 1e-05 s⁻¹ | – | – | – | –
G62A G63U | – | – | – | – | – | 359 ± 79 µM | –
A6C G37U G44U | – | < 1e-05 s⁻¹ | – | – | – | – | –
A6C G62C | – | < 1e-05 s⁻¹ | < 1e-05 s⁻¹ | < 1e-05 s⁻¹ | < 1e-05 s⁻¹ | – | < 1e-05 s⁻¹
A6C U47C U54A G59A C70U | – | < 1e-05 s⁻¹ | – | – | – | – | –
A6G C58A | – | < 1e-05 s⁻¹ | < 1e-05 s⁻¹ | < 1e-05 s⁻¹ | – | – | < 1e-05 s⁻¹
C68U U69A | 1.58e-05 ± 6.2e-06 s⁻¹ | < 1e-05 s⁻¹ | – | – | – | – | –
G62C C70U | < 1e-05 s⁻¹ | < 1e-05 s⁻¹ | < 1e-05 s⁻¹ | – | < 1e-05 s⁻¹ | – | < 1e-05 s⁻¹
